Measured values reported in patent publication EP4545563A1, “ANTIBODIES TARGETING ITGA2 AND ANTIBODY-DRUG […]” (Foreseen Technology (Beijing) Co., Ltd., priority 2022, dated 2024).

Tests used:
A431 = assay: ADC cancer cell killing, Cell-Titer-Glo 2.0; format: cell-based, human
Description: (§1) Human bile duct cancer cells HuCC-T1 available from Zhejiang MeisenCTCC, human epidermal cancer cells A431 available from Procell Life Science&Technology Co.,Ltd. (Wuhan) and Chinese hamster ovary cells CHO from negative control ATCC were seeded into a 96-well plate at 2500 cells/well. It was then incubated in a 5% CO2 incubator overnight at 37°C. Half of the medium was removed from the cell plate on the next day. A 2x hIgG1 (negative control antibody, provided by Biointron), Vatelizumab, FS002-A1-vc-MMAE, FS002-A15-vc-MMAE, FS002-A36-vc-MMAE, Vatelizumab-ve-MMAE, hIgG1-vcMMAE (negative control ADC, provided by ChemPartner) was prepared with a complete culture medium, and then diluted at a 3-fold gradient with 11 specific concentration points in total. Serial dilutions of the above molecules were added to the appropriate wells, and it was then incubated in a 5% CO2 incubator for 5 days at 37°C. After the incubation, 100 uL of Cell-Titer-Glo 2.0 reagent was added to the 96-well plate. It was then well mixed on a plate shaker for 2 minutes, and finally equilibrated at room temperature for 10 minutes. Readings were taken using a microplate reader. Finally, IC50 was used to compare the biological activity of the ADC against each cell line.

HuCC-T1 = assay: ADC cancer cell killing, Cell-Titer-Glo 2.0; format: cell-based, human
Description: as §1

CHO = assay: ADC cell killing in negative control cells, Cell-Titer-Glo 2.0; format: cell-based, Chinese hamster
Description: as §1

[1] = result in words, summary of Table 9

B1: Vatelizumab-ve-MMAE: antibody-drug conjugate of the positive control antibody Vatelizumab with vc-MMAE as the linker-payload (conjugate, chains of the INN, looked up)
VH: QVQLQESGPGLVKPSETLSLTCTVSGFSLTNYGIHWIRQPPGKGLEWLGVIWARGFTNYNSALMSRLTISKDNSKNQVSLKLSSVTAADTAVYYCARANDGVYYAMDYWGQGTLVTVSS
VL: DFVMTQSPAFLSVTPGEKVTITCSAQSSVNYIHWYQQKPDQAPKKLIYDTSKLASGVPSRFSGSGSGTDYTFTISSLEAEDAATYYCQQWTTNPLTFGQGTKVEIK
modifications: vc-MMAE payload
B1 was tested, and the IC50 (A431; human epidermal cancer cells A431, incubated 5 days at 37°C) was 0.08 nM, the “killing effect on A431” value (A431; [1]) was “good killing effect” and the IC50 (HuCC-T1; Human bile duct cancer cells HuCC-T1, incubated 5 days at 37°C) was 0.89 nM. The “killing effect on HuCC-T1” value (HuCC-T1; [1]) was “good killing effect”, the IC50 (CHO; negative control cells CHO, incubated 5 days at 37°C) was > 207 nM and the “killing effect on negative control cells CHO” value (CHO; [1]) was “no killing effect”.
